Assay results taken from paper PMC10674394 (Pharmaceuticals, 2023).

Target: C-192 ( | human, UniProt P0CG48 1-76; P0CG48 1-76, L73P (from the printed letters 55-TLSDYNIQKESTLHLVLRPR-74), Lys63 of the acceptor ubiquitin in an isopeptide bond with the C-terminal glycine of the donor ubiquitin (Lys63-linked diubiquitin) | C-terminal glycine of the donor ubiquitin in an isopeptide bond …)
Assay: SPR; Biacore T200; C-192 immobilised on a CM5 chip by amine coupling (5 ug/mL in 10 mM sodium acetate pH 5.5, 400 RU); GLP-1R, GCGR (3.906-1000 nM) or KLB (0.195-200 nM) injected at 50 uL/min for 4 min, dissociation 10 min; 1:1 kinetic binding model
Conditions: both partners purified

Kd: 19.4 nM
kon: 26300 M⁻¹ s⁻¹
B1: GCGR (receptor)
chain: AQVMDFLFEKWKLYGDQCHHNLSLLPPPTELVCNRTFDKYSCWPDTPANTTANISCPWYLPWHHKVQHRFVFKRCGPDGQWVRGPRGQPWRDASQCQMDGEEIEVQKEVAK
